According to publication PMC5270756:

Substrate: c1cc2ccc3cccc4ccc(c1)c2c34
Assay: oxidation kinetics
Assay type: biochemical, Homo sapiens
Settings: heme; NADPH

B1: P450 1A1 (Homo sapiens) (protein)
chain: MLFPISMSATEFLLASVIFCLVFWVIRASRPQVPKGLKNPPGPWGWPLIGHMLTLGKNPHLALSRMSQQYGDVLQIRIGSTPVVVLSGLDTIRQALVRQGDDFKGRPDLYTFTLISNGQSMSFSPDSGPVWAARRRLAQNGLKSFSIASDPASSTSCYLEEHVSKEAEVLISTLQELMAGPGHFNPYRYVVVSVTNVICAICFGRRYDHNHQELLSLVNLNNNFGEVVGSGNPADFIPILRYLPNPSLNAFKDLNEKFYSFMQKMVKEHYKTFEKGHIRDITDSLIEHCQEKQLDENANVQLSDEKIINIVLDLFGAGFDTVTTAISWSLMYLVMNPRVQRKIQEELDTVIGRSRRPRLSDRSHLPYMEAFILETFRHSSFVPFTIPHSTTRDTSLKGFYIPKGRCVFVNQWQINHDQKLWVNPSEFLPERFLTPDGAIDKVLSEKVIIFGMGKRKCIGETIARWEVFLFLAILLQRVEFSVPLGVKVDMTPIYGLTMKHACCEHFQMQLRS
- Km: 1.7 µM
